Biological target: T1, FLAG-tagged murine CHL2 polypeptide (mCHL2-FLAG) (murine, UniProt Q8VEA6 27-426)
T1 construct: also called murine CHL2-FLAG; FLAG-tagged mCHL2 protein
T1 sequence: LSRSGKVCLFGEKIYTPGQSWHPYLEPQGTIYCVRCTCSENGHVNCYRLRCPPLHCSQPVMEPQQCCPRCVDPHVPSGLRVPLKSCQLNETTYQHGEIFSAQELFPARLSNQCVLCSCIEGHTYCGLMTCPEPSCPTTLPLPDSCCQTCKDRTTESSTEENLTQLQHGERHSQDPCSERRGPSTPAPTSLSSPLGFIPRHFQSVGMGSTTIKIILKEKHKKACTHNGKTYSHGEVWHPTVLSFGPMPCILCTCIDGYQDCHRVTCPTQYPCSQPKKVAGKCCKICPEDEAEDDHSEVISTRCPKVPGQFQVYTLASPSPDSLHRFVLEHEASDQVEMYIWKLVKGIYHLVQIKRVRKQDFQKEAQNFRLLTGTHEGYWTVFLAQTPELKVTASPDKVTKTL
Experiment: co-immunoprecipitation: mCHL2-FLAG mixed with activin A, anti-mCHL2 antiserum, protein A agarose beads, western blot for activin
From the text: FIG. 12 illustrates the results of Western blot analysis using mCHL2-FLAG proteins. In panel A, mCHL2-FLAG was mixed with BMP5 or activin A, treated with an anti-mCHL2 antiserum, and precipitated with protein A agarose beads. In panel B, mCHL2-FLAG was mixed with BMP2, BMP4, BMP5, BMP6, GDF5 (BMP14), or activin A, treated with an anti-mCHL2 antiserum, and precipitated with protein A agarose beads.

binding result: no binding
B1: activin A (ligand, UniProt P08476 311-426, looked up)
chain: GLECDGKVNICCKKQFFVSFKDIGWNDWIIAPSGYHANYCEGECPSHIAGTSGSSLSFHSTVINHYRMRGHSPFANLKSCCVPTKLRPMSMLYYDDGQNIIKKDIQNMIVEECGCS

— patent publication US20030158378A1 (Amgen, published 2003)
